Where a chain is given by its changes, count along the chain named. Numbers in names are those of the source.

The labels stand for the following.
T1: Ep-CAM (UniProt P16422 24-265, limits assumed)
T1 construct: Antigen of the Biacore analysis of ING-1 variants
T1 sequence (looked up): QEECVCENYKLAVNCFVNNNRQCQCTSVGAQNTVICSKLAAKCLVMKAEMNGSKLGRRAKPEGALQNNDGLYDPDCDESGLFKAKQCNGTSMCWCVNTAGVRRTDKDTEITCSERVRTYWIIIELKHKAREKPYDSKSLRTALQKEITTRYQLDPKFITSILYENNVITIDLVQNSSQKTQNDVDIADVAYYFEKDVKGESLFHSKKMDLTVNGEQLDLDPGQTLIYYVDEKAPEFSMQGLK

B1: XPA23 heavy chain Y101I (Fab, V domains shown)
VH: EVQLLESGGGLVQPGGSLRLSCAASGFTFSKYFMFWVRQAPGKGLEWVSVISPSGGMTRYADSVKGRFTISRDNSKNTLYLQMNSLRAEDTAVYYCARVGIGGNSDYWGQGTLVTVSS
VL: DIQMTQSPSSVSASVGDRLTIICRASQDINRWLAWYQQTPGNAPKLLIHSATSLQSGVPSRFSGSGSGTDFTLTINSLQPEDFATYYCQQADSFPLTFGGGTKVEIK
notes: Fab, periplasmic extract; also called C5A Y101I
B2: XPA23 heavy chain Y101V (Fab, V domains shown)
VH: B1 VH with I101V
VL: B1 VL
notes: Fab, periplasmic extract; also called C5A Y101V
B3: XPA23 heavy chain Y107L (Fab, V domains shown)
VH: B1 VH with I101Y, Y107L
VL: B1 VL
notes: Fab, periplasmic extract; also called C5A Y107L
B4: XPA23 heavy chain Y107I (Fab, V domains shown)
VH: B1 VH with I101Y, Y107I
VL: B1 VL
notes: Fab, periplasmic extract; also called C5A Y107I
B5: XPA23 heavy chain Y107G (Fab, V domains shown)
VH: B1 VH with I101Y, Y107G
VL: B1 VL
notes: Fab, periplasmic extract; also called C5A Y107G
B6: XPA23 heavy chain Y107T (Fab, V domains shown)
VH: B1 VH with I101Y, Y107T
VL: B1 VL
notes: Fab, periplasmic extract; also called C5A Y107T
B7: XPA23 heavy chain Y107A (Fab, V domains shown)
VH: B1 VH with I101Y, Y107A
VL: B1 VL
notes: Fab, periplasmic extract; also called C5A Y107A
B8: XPA23 heavy chain Y107V (Fab, V domains shown)
VH: B1 VH with I101Y, Y107V
VL: B1 VL
notes: Fab, periplasmic extract; also called C5A Y107V
B9: XPA23 heavy chain Y107P (Fab, V domains shown)
VH: B1 VH with I101Y, Y107P
VL: B1 VL
notes: Fab, periplasmic extract; also called C5A Y107P
B10: XPA23 heavy chain Y101P (Fab, V domains shown)
VH: B1 VH with I101P
VL: B1 VL
notes: Fab, periplasmic extract; also called C5A Y101P
B11: XPA23 heavy chain Y101L (Fab, V domains shown)
VH: B1 VH with I101L
VL: B1 VL
notes: Fab, periplasmic extract; also called C5A Y101L
B12: XPA23 heavy chain Y101T (Fab, V domains shown)
VH: B1 VH with I101T
VL: B1 VL
notes: Fab, periplasmic extract; also called C5A Y101T
B13: ING-1 heavy chain D104F (Fab, V domains shown)
VH: QIQLVQSGPELKKPGETVKISCKASGYTFTKYGMNWVKQAPGKGLKWMGWINTYTEEPTYGDDFKGRFAFSLETSASTANLQINNLKSEDTATYFCARFGSAVFYWGQGTSVTVSS
VL: DIVMTQAAFSNPVTLGTSGSISCRSSKSLLHSNGITYLYWYLQKPGQSPQLLIYQMSNLASGVPDRFSSSGSGTDFTLRISRVEAEDVGVYYCAQNLELPRTFGGGTKLEMKR
B14: ING-1 heavy chain N52E (Fab, V domains shown)
VH: B13 VH with N52E, F104D
VL: B13 VL
B15: ING-1 heavy chain G33H (Fab, V domains shown)
VH: B13 VH with G33H, F104D
VL: B13 VL
B16: ING-1 heavy chain G33D (Fab, V domains shown)
VH: B13 VH with G33D, F104D
VL: B13 VL
B17: ING-1 heavy chain G33W (Fab, V domains shown)
VH: B13 VH with G33W, F104D
VL: B13 VL
B18: ING-1 heavy chain N52D (Fab, V domains shown)
VH: B13 VH with N52D, F104D
VL: B13 VL
B19: ING-1 heavy chain D104K (Fab, V domains shown)
VH: B13 VH with F104K
VL: B13 VL
B20: ING-1 heavy chain G100F (Fab, V domains shown)
VH: B13 VH with G100F, F104D
VL: B13 VL
B21: ING-1 heavy chain G33Q (Fab, V domains shown)
VH: B13 VH with G33Q, F104D
VL: B13 VL
B22: ING-1 heavy chain G100D (Fab, V domains shown)
VH: B13 VH with G100D, F104D
VL: B13 VL
B23: ING-1 heavy chain D104Y (Fab, V domains shown)
VH: B13 VH with F104Y
VL: B13 VL
B24: ING-1 heavy chain G100Y (Fab, V domains shown)
VH: B13 VH with G100Y, F104D
VL: B13 VL
B25: ING-1 heavy chain G33K (Fab, V domains shown)
VH: B13 VH with G33K, F104D
VL: B13 VL
B26: ING-1 heavy chain G33R (Fab, V domains shown)
VH: B13 VH with G33R, F104D
VL: B13 VL
B27: ING-1 heavy chain G100W (Fab, V domains shown)
VH: B13 VH with G100W, F104D
VL: B13 VL
B28: ING-1 heavy chain E57Q (Fab, V domains shown)
VH: B13 VH with E57Q, F104D
VL: B13 VL
B29: ING-1 heavy chain G100E (Fab, V domains shown)
VH: B13 VH with G100E, F104D
VL: B13 VL
B30: ING-1 heavy chain G33N (Fab, V domains shown)
VH: B13 VH with G33N, F104D
VL: B13 VL
B31: ING-1 heavy chain D104H (Fab, V domains shown)
VH: B13 VH with F104H
VL: B13 VL
B32: ING-1 heavy chain G33E (Fab, V domains shown)
VH: B13 VH with G33E, F104D
VL: B13 VL
B33: ING-1 heavy chain K31Y (Fab, V domains shown)
VH: B13 VH with K31Y, F104D
VL: B13 VL
B34: ING-1 heavy chain G100H (Fab, V domains shown)
VH: B13 VH with G100H, F104D
VL: B13 VL
B35: ING-1 heavy chain D104R (Fab, V domains shown)
VH: B13 VH with F104R
VL: B13 VL
B36: ING-1 heavy chain D104Q (Fab, V domains shown)
VH: B13 VH with F104Q
VL: B13 VL
B37: ING-1 heavy chain G100Q (Fab, V domains shown)
VH: B13 VH with G100Q, F104D
VL: B13 VL
B38: ING-1 heavy chain K31N (Fab, V domains shown)
VH: B13 VH with K31N, F104D
VL: B13 VL
B39: ING-1 heavy chain N52F (Fab, V domains shown)
VH: B13 VH with N52F, F104D
VL: B13 VL
B40: ING-1 heavy chain D104W (Fab, V domains shown)
VH: B13 VH with F104W
VL: B13 VL

The first test has as its target T2, IL-1β (UniProt P01584 117-269).
T2 construct: Antigen of XPA23
The test can be described thus: Biacore, Fab periplasmic extract.
Consider B1, for which the “fold difference in affinity against the original” value is 0.83 fold. The same measure, in the same setting: as for B2, the figure is 0.09 fold; as for B3, 0.86 fold.

Consider B4, for which the “fold difference in affinity against the original” value came to 0.96 fold.

Consider B5, for which the “fold difference in affinity against the original” value stood at 0.1 fold. In the case of B6, the “fold difference in affinity against the original” value amounted to 0.83 fold. The same measure, in the same setting: as for B7, the figure is 0.83 fold. On to B8, for which the “fold difference in affinity against the original” value was found to be 0.93 fold. The same measure, in the same setting: the same measure for B9: 0.04 fold. Still for that read-out and setting: the same measure for B10: 0.04 fold. As for B11, the “fold difference in affinity against the original” value was determined as 1.91 fold. Still for that read-out and setting: as for B12, the figure is 0.06 fold.

A further test has as its target T1, Ep-CAM. The test can be described thus: Biacore, Fab periplasmic extract. On the technique in general: SPR reads the build-up and loss of mass on a sensor chip optically.
Turning to B13, the binding result was “no binding”. Same read-out and setting: as for B14, the entry is “no binding”.

Turning to B15, the “fold difference in affinity vs original” value came to 0.02 fold. Turning to B16, the binding result is given as “no binding”. Still for that read-out and setting: the same measure for B17: “no binding”.

As to B18, the “fold difference in affinity vs original” value was found to be 0.02 fold. As for B19, the binding result is listed as “no binding”. Still for that read-out and setting: the same measure for B20: “no binding”. In the case of B21, the “fold difference in affinity vs original” value turned out to be 0.06 fold. As to B22, the binding result was “no binding”. The same measure, in the same setting: the same measure for B23: “no binding”. On the same count and under the same terms, the same measure for B24: “no binding”.

Take B25: the binding result was “no binding”.

For B26, the “fold difference in affinity vs original” value was 0.03 fold. Take B27: the binding result is recorded as “no binding”.

Turning to B28, the binding result is given as “no binding”. Same read-out and setting: as for B29, the entry is “no binding”; as for B30, “no binding”; as for B31, “no binding”.

In the case of B32, the binding result is “no binding”. B33: the “fold difference in affinity vs original” value came to 1 fold. As for B34, the binding result is given as “no binding”. Regarding B35, the binding result was “no binding”. The same measure, in the same setting: the same measure for B36: “no binding”; for B37: “no binding”; for B38: “no binding”. Still for that read-out and setting: the same measure for B39: “no binding”. For the molecule B40, the binding result is on record as “no binding”.

The values are drawn from patent publication US20110118131A1 (published 2011).
